From patent publication US20200087363A1 (IMMATICS BIOTECHNOLOGIES, published 2020)

Each binder was assayed against T1, HLA-B*44:05 (human) (assay: UV peptide exchange, anti-b2m ELISA).
T1 construct: also called peptide-receptive MHC class I molecule
Method in brief: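 Peptide-receptive HLA-B*44:05 monomers after UV-induced exchange were diluted 100-fold and captured on streptavidin-coated plates for 1 h at 37 °C. Bound complexes were detected with 2 µg/ml HRP-anti-β2m (1 h, 37 °C) and TMB, read at 450 nm. β2m signal reflects peptide-stabilized complex yield.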

| Binder | peptide exchange yield |
| --- | --- |
| EEYKFPSLF | 50 to 75% |
| DELMRKESQW | 50 to 75% |
| AEREQVIKL | > 75% |
| GEVQENYKL | 50 to 75% |
| HEATFGEKRF | 50 to 75% |
| GEPRKLLTQDW | 50 to 75% |
| AENRVGKMEA | 20 to 50% |
| GETVVLKNM | 50 to 75% |
| AEAMGKFKQCF | 50 to 75% |
| AEDFVWAQW | > 75% |
| AEDARGWTA | 20 to 50% |
| AERDLNVTI | 50 to 75% |
| AEGYLDLDGI | 20 to 50% |
| EESDYITHY | 50 to 75% |
| EESFRCLPEW | > 75% |
| EESFDSKFY | 50 to 75% |
| EEAGFPLAY | 50 to 75% |
| GEYNKHAQLW | > 75% |
| AEIIRYIF | 10 to 20% |
| EECGKAFRVF | 50 to 75% |
| EECGKAFSVF | 50 to 75% |
| AEALGAAKKL | 20 to 50% |
| DEQRRQNVAY | 20 to 50% |
| EEMERDLDMY | 50 to 75% |
| IEQADWPEI | 20 to 50% |
| EEVLLANALW | 50 to 75% |
| EENTGKTYF | 50 to 75% |

Other lines, results leading:

| peptide exchange yield | Binder |
| --- | --- |
| 50 to 75% | IETSSEYFNF |
| 50 to 75% | SELNPLALY |
| > 75% | QESVHVASY |
| > 75% | LEHPFLVNLW |
| > 75% | TELGLFGVW |
| 50 to 75% | MEFQNTQSY |
| 50 to 75% | RELEEEFYSL |
| 50 to 75% | VEIVTIPSL |
| 20 to 50% | MELLFLDTF |
| 50 to 75% | SEFGAPRW |
| > 75% | NEIGQELTGQEW |
| 20 to 50% | VENIFHNF |
| 50 to 75% | TEVSVLLLTF |
| > 75% | YEHAFNSIVW |
| 50 to 75% | SETILAVGL |
| 50 to 75% | SESDGIEQL |
| 50 to 75% | SEENTGKTYF |
| 50 to 75% | TESIGAQIY |
| 50 to 75% | NEAEWQEIL |
| 50 to 75% | SEILRVTLY |
| 50 to 75% | LDGIPTAGW |
| 20 to 50% | REDPIVYEI |
| 50 to 75% | QELFLQEVRM |
| 50 to 75% | REVDPDDSYVF |
| 50 to 75% | TELEPGLTY |
| 50 to 75% | QEAKPRATW |
| > 75% | QELMAFSFAGL |
